Laboratory results reported in the nanobody polyreactivity screen of Harvey et al. (2022).

Experiment: yeast display, Sf9 membrane polyspecificity reagent, FACS + sequencing; frameworks hold sequencing errors
How it was run: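 Using colony PCR, genes from sorted yeast display clones were amplified, then sequenced on MiSeq at 2 × 250 and filtered by CDR length. The clones had been stained with 10% biotinylated, detergent-solubilized Sf9 membrane reagent for 1 hour at 4 °C and sorted by FACS into low and high (top ~1%) gates on anti-HA and streptavidin fluorescence. Polyreactivity labels come from the gate of origin.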

Sequence	polyreactivity (PSR sort gate)
QVQLVESGGGLVQAGGSLRLSCAASGSIFKSNAMGWYRQAPGKERELVAAISNGGITNYADSVKGRFTISRDNAKNTVYLQMNSLKPEDTAVYYCATSDVREIWVDYWGQGTQVTVSS	low polyreactivity
QFQLLESGGGLVQAGGSLRLSCAASGRTFSYNAMGWYRKAPGIERELVAAITGGTASTYYADSVKGRFTISRDNAKNPVYFQMNSLKPEETAVYYCNRASVFHYPWYYYWGQGTQVTVSS	high polyreactivity
QVQLVESGGGLVQAGGSHRLSFAASGSIFWRNAMGWYRQAPGKERELVAVISGGSTYADSVKGRFTISRDNAKNTVYLKMNSLKPEDTAVYFCNADLYVSSYPKGYDYWGQGTQVTVSS	low polyreactivity
QGQLVESGGGLVQAGGSLRLSCAASGFTFPGYAMGWYRQAPGNVRELVAAITGSGGRTYYADSVKGRFTISRDNAKNTVYLQMNSLKPEDTAVYYCLARSSYNWYDYWGQGTQVTVSS	high polyreactivity
QVQLVESGGGLVQARGSLRLSCAASGRILWDYAMGWYRQAPGKEREWLAAIDWSAGSTYYADSVKGRFTISRDNAKNTVYLQMKSLKPEDTAVYYCNARSRVGNSGADYDYWGQGTQVTVSS	low polyreactivity
QVQLVESGGGLVQAGGSLRLSCAASGFIFYYYAMGWYRQAPGKERELVARISRVGSTYYADSVKGRFTISRDNAKNTVYLQINSLKPEDTAVYYCAKVSIARIKTRYNYWGQATQVTVSS	high polyreactivity
QVQLVDSGGGLVQAGGSLRLSCAASGYTFPSKTMGWYRQAPGKERELVAAISGGGRTYYADSVKGRFTISRDNAKNTVYLQMNCLKPEDSAVYYCAKDSWYTQNRYNYWGQGTQVNVSS	low polyreactivity
QVQLGESGGGLVQAGVSLRLSCAASGRTFGSYAMGWYRQAPGKESEMVAVISWSGGITYYADSVKGRFTISRDNAKNTVYLQMNSLKPEDTAVYYCAASPRRDENAGRVRLYYWGQGTQVTVSS	high polyreactivity
QVQLVESGGGLVQAGGSLRLSCAASGRTSAIYDMGWYRQAPGKERDLVAAIDYSDGSTYYADSVKGRFTISRDNAKYTVYLQMNSLKPEDTAVYYCAADYDAIYLWWGYDYWGQGTQLTVSS	low polyreactivity
QVQLVESGGGLVQAGGSLRLSCAASGRTFSYYAIGWYRQAPGTERELVAGISYSGGTTYYADSVKGRFTISRDNAKNTVYLQMNSLKPEDTAVYYCATRYWTFSGYDYWGQGTQVTVSS	low polyreactivity
QVQLVESVGGLVQAGGSLRLSCAASGRIFKWYAMGWYRQAPGKERELVAAITSGGGSTYYADSVKGRFTISRDNAKNTVYLQINSLKPEDTAVYYCNAKAPAEIRSYLRTSRYDYWGQGTQVTVSS	high polyreactivity
QVQLVESGGGLVQAGGSLRLSCAASGSTFSSNAMGWYRQAPGKERELVAAISWSGASTYYADSVKGRFTISRDNAKNTVYLQMNSLKPEDTAVYYCATVWQAKYYGNHRFGYWGQGTQVTVSS	low polyreactivity
QVQLVESGGGLVQAGGSLRLSCAASGRIFGINAMGWYRQAPGKERELVAAITWSGDGTYDADSVKGRFTISRDNAKNTVYLQMNSLKPEDTAVYYCAKQLPEISQMDYWGQGTQVTVSS	low polyreactivity
QVKVVESGGGLVQAGGSLRLSCAASGSIYVGYAMGWYRQAPGKERELVAAISWSGDSTYYADSVKGRFTISRDNAKNTVYLQMNSLKPEDTAVYYCAVDYAEIGPRREFEYDYWGQGTQVTVSS	low polyreactivity
QVHLVESGGGLVQAGGCLRLICAASGSIFVPYAMGWYRQAPVKERELVAAISRGGDTNYADSVKGRFTISRDNAKNTVYLQMKSLKPEDTAVYYCAKSGYGNRGFDYWGQGTQVSVSS	low polyreactivity
QVQLVESGGGLVQAGGSLRLSCAAYGRIFAYYAMGWYRQAPGKERELVAAISSGGTTNYADSVKGRFTISRDNAKNTVYLQMNSLKPEDTAVYYCNADGWRRSRQYYYWGQGTQVTVSS	low polyreactivity
QVQLVESGGGLVQAGGSLRLSCAASGLIFSGYAMGWYRQAPGKERELVAAISRGGGRTSYADSVKGRFTISRDNAKNTVYLQMNSLKPEDTAVYYCAKDPRYLRYDHWGQGTQVTVSS	high polyreactivity
QVQLVESGGGLVQAGGSLRLSCAASGSTFGVYAMGWYRQAPGKEREFVAAITSSSGSTYYADSVKGRFTISRDNAKNTVYLQMNSLKPEDTAVYYCNVQGWTRSDAGRYDNMDYWGQGTQVTVSS	low polyreactivity
QVQLVESGGGLVQAGGSLRLSCAPSGSIFRYYAMGWYRQAPGKERELVAAISWSGTSTYYADSVKGRFTISRDNAKNTVYLQMNSLKPEDTAVYYCNKVIPANIRRSYDYWGQGTQVTVSS	high polyreactivity
QVQLVESGGGLVQAGGSLRLSCAASGSTFYYYTMGWYRQAPGKEREFVAAITVGGGSTYYADSEKGRFTISRDNAKNTVYLQMNSLKPEDTAVYYCAKEVGRYLGTVSYEYDYWGQGTQVTVSS	high polyreactivity
QVQLVESGGGLVQAGGSLRLSCAASGSTFPRYAMGWYRQAPGKERELVAAISKSGTITSYADSVKGRFTISRDNAKNTVYLQMNSLKPEDTAVYYCAKGRYWPYDYWGQGTQVTVSS	high polyreactivity
QVQLVESGGGLFQAGGSLRLSCAASGRTFGYYAMGWYRQAPGKERELVAAITGDATTYYADSVKGRFTISRDNAKNTVYLQMNSLQPEDTAVYYCDALFTPALSEYDYWGQGTQVTVSS	high polyreactivity

Sequence	polyreactivity (PSR sort gate)
QVQLVESGGGLVQAGGSLRLSCAASGIIFGWYAMGWYRQAPGKEREFVATISWSGASTYYADSVKGRFTISRDNAKNTVYLQMNSLKPEDTAVYYCAAGGRRQAYGRRDYWGQGTQVTVSS	high polyreactivity
QVQLVESGGGLVQAGGSLRLSCSASGSTFYRYAMGWYRQAPGKERELVATITSGGSTHYADSVKGRFTISRDNAKNTVYLQMNSLKPEDTAVYYAATTSDWYTTINVVYRYYYWGQGTQVTVSS	high polyreactivity
QVLLVESGGGLVQAGGSLRLSCAASGIILGDNARGWYRQAPGKDRVLDATISTSGVSTYYADSVKGRFTISRDNAKKTVNFQMNSLKPQDTAVYYCAASNEVPWRFPDDSWGQGTQVTVSS	low polyreactivity
QVQLVESVGGLVQAGGSLRLSCAASGFIFRGYALGWYRQARGKEWELVAAMNAGDSTNYADSVKGRFTISRDTAKNTVYLQMNSLKPEETAVYYCAASIYAALNGGPGYDYWGQGTQVTVSS	low polyreactivity
QVQLVESGGGLVQAGGSLRLSCAASGFTFVQYAMGWYRQAPGKERELVATISKSGGITYYADSVKGRFKISRDYAKNTVYLQMNSLKPEDTAVYYCAASWYYSSRGFHATWGHDYWGQGTQVTVSS	low polyreactivity
QVQLLESGGGLVQAGGSLRLSCADSGSIFPKNAIGWYRQAPGKERELVAGITSRTGRTYYADSVKGRFTISRDNSKNTVYLQMNRLKPEDTAVYYCAARIGGGPVKYDYWGQGTQVTVSS	high polyreactivity
QVQLVQSGGGLVQAGGSLRLSCAASGSTIVTNAMGWYRQAPGKERELVAANTSVGSTYYADSVKGRFTISRDNAKNTVYLQMNSLKPEDTAVYYCNVVYRDQYNYWGQGTQVTVSS	low polyreactivity
QVQLVESGGGLVQAGGSLRLICAASGFTFAYYAMGWYRQAPGKERELVAAISSGGSTYYADSVKGRFTISRDNAKNTVYLQMNSLKPEDTAVYYCAARGGRPLIHHWPWYSWKYDYWGQGTQVTVSS	low polyreactivity
QVQLVESGGGLVQAGGSLRLSCAASGGIFAPNAMGWYRQAPGKEREFVAAISTGGGSTRYADSVKGRFTISRDNAKNTVYLQMNSLKPEDTAVYYCAAELWYTWLGSPYDYWGQGTQVTVSS	low polyreactivity
QVQLVESGGGLVKAGGSLSLSCAASGFTVYRYTMGWYRPAPGKEREVVARITYSGGSTYYADSVKVRFTISRDNAKNTVYLQLYCLKPVDSAVYYCNARSDFYSRYGYKYDYWGQGTQVTVSS	high polyreactivity
QVQLVESGGGLVQAGGSLRLICAASGRTFSYYAIAWYRPAPGKERELVAAINWSGTRTYYADSVTGRCTISRDNAKNTVYLQMNSLNPEDTAVYYCARRWVGYDYWGQGTQVTVSS	high polyreactivity
QVQLVESGGGLVQAGGSLRLSCADSGITFWTNTMGWYRQAPGKERELVAVITSGGTTNYADSVKGRFTISRDNAKNTVYLQMNSLKPEDTAVYYCAKKYGYFGLHGYWGQGTQVTVSS	high polyreactivity
QVQLVESGGGLDQAGGSLRLRCAASGSTFYVNAIGWYRQAPGKERELVAAITSTGTTHNADSVKGRFTISRDNAKKTVYLQMNSLKPEDTAVYYCAAGDQYKTRRNGYGYWGQGTQVTVSS	high polyreactivity
QVQLVESGGGLVQAGGSLRLSCAASGSIFDVYAMGWYRQAPGKERELVAAITWRGGSTYYADSVKGRFTISRDNAKNTVYLQMNSLKPEDTAVYYCAAVYQSRLWDRYYYWGQGTQVTVSS	high polyreactivity
QVQLVESGGGLVQAGGSLRLSCAASGSIFILNAMGWYRQAPGKERELVAAISSSGGSTYYADSVMGRFTISRDNAKYTDYLQMNSLKPEDSAVYYCAAERNYYFLFPYDSWGQGTQVTVSS	high polyreactivity
QVQLVESGGGLVQAGGSLRLSCAASGRTLDGNDMGWYRQPPGKERELVAAITVTGSSTYYADSVKGRFTISRDNAKNTVYLQMNSLKPEDTAVYYCAKASGGDVRYSYSYRMDYWGQGTQVTVSS	low polyreactivity
QVQLVESGGGLVQAGGSLRLSCAASGIIFYPYAMGWYRQAPGKERELVAGISWSGGRTYYADSVKGRFTISRDNAKNTVYLQMNSLKPEDTAVYYCAARYRQRAYDYWGQGTQVTVSS	high polyreactivity
QVQLVESGGRLDQAGGSLRLSCAASGRIFSRNTMGWYRQAPGKERELVATITSAGSTSFADSVKGRFTISRDNAKNTVYLQMNSLKPENTAVYYCAKRGAYATGRRYDPYGYWGQGTQVTVSS	high polyreactivity
QVQLVESGGGLVQAGGSLRLSCAASGRTFKPYAMGWYRQAPGKERELVAVISSTGSTKYADSVKGRFTISRDNAKNTVYLQMNSLKPEDTAVYYCAAQNTYIYYWGQGTQVTVSS	high polyreactivity
QVQLVESGGGLVQAGGSLRLSCAASGGPFKRNAMGWSRQAPGKERELVAAISTSGATTYYADSVKGRFTISRDTAKNTVYLQMNSLKPEDTAVYYCAARIRGYVYKGMNYWGQGTQVTVSS	high polyreactivity
QVQLVESGGGLVQAGGSLRLSCAASGRTIGWYTMGWYRQERGKERELVAAISGRGGSTTYADSVKGRFTISRDNAKNTVYLQMNSLKPEDTAVYYCAKRRVRGTTRRYGYWGQGTQVTVSS	high polyreactivity
